Results as given in patent US20250092130A1 (INNATE PHARMA, published 2025).
Blank lines part the entries; values can stand above or below the binder they belong to.

What was measured:
[1] = target: KIR3DL2 mutant 11 (P179T, S181T) (human, UniProt P43630 22-455); assay: binding to cells transfected with KIR3DL2 mutants
[2] = target: KIR3DL2 mutant 11A1 (V178A, H180S) (human, UniProt P43630 22-455); assay: binding to cells transfected with KIR3DL2 mutants
[3] = target: T1, human KIR3DL2 (wild-type, allele *002) (human, UniProt P43630 22-455); assay: immunohistochemistry (DAB) on frozen sections of RAJI-KIR3DL2 tumors and cell lines
T1 construct: also called CD158k; WTaKIR3DL2
Protocol: Tumor biopsies from RAJI-KIR3DL2 models and RAJI-KIR3DL2 cell lines were obtained and staining was performed on frozen samples using AZ158 antibody (see WO2010/081890) or antibodies 12B11 (see Example 1). KIR3DL2 was stained with anti-KIR3DL2 antibody by DAB chromogenic detection according to standard protocols, adapted for immunostaining with BenchMark XT (Ventana, Roche). For all staining control isotype (mIgG1) and control DAB were performed.

[4] = target: KIR3DL2 mutant M11A4 (E130S, H131S, R145S) (human, UniProt P43630 22-455); assay: binding to cells transfected with KIR3DL2 mutants
[5] = target: T1, human KIR3DL2 (wild-type, allele *002); assay: flow cytometry on HUT78, COU-L and HEK-293T/KIR3DL2 Domain 0-eGFP cells; Biacore on rec KIR3DL2 chips
Protocol: Antibodies which bind KIR3DL2 but not closely-related KIR3DL1 were generated by immunizing mice with recombinant KIR3DL2-Fc fusion protein. Supernatants (SN) of the growing hybridomas were tested by flow cytometry on Sézary Syndrome cell lines (HUT78, COU-L) and HEK-293T/KIR3DL2 Domain 0—eGFP. Potentially interesting hybridomas selected from the initial screening were cloned by limiting dilution techniques in 96-well plates. The secondary screen involved selection of hybridomas of interest by testing supernatants of the subclones by flow cytometry on HUT78, COU-L, HEK-293T/KIR3DL1 Domain 0—eGFP and HEK-293T/KIR3DL2 Domain 0—eGFP. Positive subclones were injected into mice to produce ascitis and antibodies of interest were purified before being tested in a Biacore assay using rec KIR3DL2 chips, followed by various assay formats based on binding to human KIR3DL2-expressing cells.

[6] = target: T2, KIR3DL2 mutant having I60N and G62S substitutions (human, UniProt P43630 22-455); assay: binding to KIR3DL2 mutants
T2 construct: It says 'mutants'; also called mutants having 160N and G62S substitutions
T2 sequence (P43630 other isoform, or with tags, fused parts or gaps I60N G62S I60N G62S): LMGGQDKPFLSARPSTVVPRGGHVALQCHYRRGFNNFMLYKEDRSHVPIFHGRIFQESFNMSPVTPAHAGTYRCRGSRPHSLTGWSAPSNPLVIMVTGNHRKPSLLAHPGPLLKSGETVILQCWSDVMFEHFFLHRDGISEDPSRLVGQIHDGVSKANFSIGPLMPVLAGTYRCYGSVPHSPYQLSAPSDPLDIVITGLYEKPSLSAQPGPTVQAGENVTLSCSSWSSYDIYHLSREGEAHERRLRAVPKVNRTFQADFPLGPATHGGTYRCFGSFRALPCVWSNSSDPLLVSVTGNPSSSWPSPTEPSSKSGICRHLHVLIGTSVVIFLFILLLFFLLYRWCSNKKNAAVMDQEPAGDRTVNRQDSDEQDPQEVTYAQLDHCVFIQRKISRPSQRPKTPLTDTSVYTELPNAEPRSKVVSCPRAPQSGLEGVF

T1 sequence (P43630 22-455 E158D): as the sequence (P43630 other isoform, or with tags, fused parts or gaps I60N G62S I60N G62S) above, with N60I, S62G counted along it
Chain of KIR3DL2 mutant 11 (P179T, S181T) (P43630 other isoform, or with tags, fused parts or gaps P179T S181T P179T S181T): as the sequence (P43630 other isoform, or with tags, fused parts or gaps I60N G62S I60N G62S) above, with N60I, S62G, P179T, S181T counted along it
Chain of KIR3DL2 mutant 11A1 (V178A, H180S) (P43630 other isoform, or with tags, fused parts or gaps V178A H180S V178A H180S): as the sequence (P43630 other isoform, or with tags, fused parts or gaps I60N G62S I60N G62S) above, with N60I, S62G, V178A, H180S counted along it
Chain of KIR3DL2 mutant M11A4 (E130S, H131S, R145S) (P43630 other isoform, or with tags, fused parts or gaps E130S H131S R145S E130S H131S R145S): as the sequence (P43630 other isoform, or with tags, fused parts or gaps I60N G62S I60N G62S) above, with N60I, S62G, E130S, H131S, R145S counted along it

binding result [1]: no binding
binding result [2]: no binding
binding result [3]: binds
B1: antibody 12B11 (antibody, IgG1, V domains shown)
VH: QLVQSGPELKNPGETVKISCKASGYTFTNYGMNWVKQAPGKGLKWMGWINTYTGEPTYADDFKGRFAFSLETSASTAYLQINNLKNEDTATYFCAHGPWLAYWGQGTLVTVS
VL: DIKMTQSPSSMYASLGERVTITCKASQDINVYLSWFQQKPGKSPKTLIYRAIRLVDGVPSRFSGSGSGQDYSLTISSLDYEDMGIYYCLQYDELPYTFGGGTKLEIE
notes: Mouse monoclonal

binding result [1]: no binding
binding result [2]: no binding
binding result [4]: no binding
binding result [5]: binds
B2: antibody 19H12 (antibody, IgG2b, V domains shown)
VH: QIQLVQSGPELKKPGETVKISCKASGYTFTNFGMNWVKQAPGKGLKWMGWINTYTGEPTYADDFKGRFAFSLETSASTAYLQINNLKNEDMATYFCARNGNFGYYFDYWGQGTTLTVSS
VL: DVLMTQTPLSLPVSLGDQASFSCRSSQNIVHSNGNTYLEWYLQKPGQSPSLLIYKVSNRFSGVPDRFSGSGSGTDFTLKITRVEAEDLGVYYCFQGSHVPFTFGSGTKLEIK
notes: Mouse monoclonal from a hybridoma; also called anti-KIR3DL2 19H12

binding result [6]: no binding
B3: antibody 2B12 (antibody, V domains shown)
VH: QIQLVQSGPELKKPGETVRISCKASGYTFTTAGMQWVQKTPGKGLKWIGWINSHSGVPKYAEDFKGRFAFSLETSASTAYLQISTLKNEDTATYFCARGGDEGVMDYWGQGTSVTVS
VL: DIVMTQSHKFMSTSLGDRVSFTCKASQDVSTAVAWYQQKPGQSPKLLIYWTSTRHTGVPDRFTGSGSGTDYTLTISSVQAEDLALYYCQQHYSTPWTFGGGTKLEIK
